Changes are numbered by the printed parent chain.
B1: MKK6KIM peptide (peptide)
peptide: SQSKGKKRNPGLKIPKEAF
B2: full-length MKK6 (residues 1-334) (enzyme, UniProt P52564 1-334, looked up)
chain: MSQSKGKKRNPGLKIPKEAFEQPQTSSTPPRDLDSKACISIGNQNFEVKADDLEPIMELGRGAYGVVEKMRHVPSGQIMAVKRIRATVNSQEQKRLLMDLDISMRTVDCPFTVTFYGALFREGDVWICMELMDTSLDKFYKQVIDKGQTIPEDILGKIAVSIVKALEHLHSKLSVIHRDVKPSNVLINALGQVKMCDFGISGYLVDSVAKTIDAGCKPYMAPERINPELNQKGYSVKSDIWSLGITMIELAILRFPYDSWGTPFQQLKQVVEEPSPQLPADKFSAEFVDFTSQCLKKNSKERPTYPELMQHPFFTLHESKGTDVASFVKLILGD
B3: constitutively active MKK6 variant MKK6_(1-334)^S207ET211E (enzyme, UniProt P52564 1-334, looked up)
chain: B2 chain with S207E, T211E

Biological target: mitogen-activated protein kinase p38α (residues 2-349) (human, UniProt Q16539 2-349)
Experiment: ITC

Chain of mitogen-activated protein kinase p38α (residues 2-349) (Q16539 2-349): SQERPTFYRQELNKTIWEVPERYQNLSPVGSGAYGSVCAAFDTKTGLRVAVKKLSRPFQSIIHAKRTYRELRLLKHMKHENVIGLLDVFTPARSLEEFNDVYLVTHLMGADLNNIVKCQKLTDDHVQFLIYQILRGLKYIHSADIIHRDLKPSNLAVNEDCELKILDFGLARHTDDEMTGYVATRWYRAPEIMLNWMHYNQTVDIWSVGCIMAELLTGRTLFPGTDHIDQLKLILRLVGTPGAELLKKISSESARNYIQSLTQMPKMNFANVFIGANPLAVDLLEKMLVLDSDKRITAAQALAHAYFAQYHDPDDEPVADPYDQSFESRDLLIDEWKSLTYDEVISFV

| Binder | Kd |
| --- | --- |
| B1 | 7 ± 2 µM |
| B2 | 2 ± 0.1 µM |
| B3 | 3.5 ± 1.4 µM |

— publication doi:10.1101/2020.11.26.395038 (bioRxiv, 2020)
